The values that follow come from paper PMC6340165, “A GntR Family Transcription Factor in Streptococcus mutans Regulates Biofilm Formation and Expression of Multiple Sugar Transporter Genes”.

The target of data set [1] is T1, StsR (GntR family regulator) (Streptococcus mutans UA159) (UniProt Q8DTX4).
T1 sequence: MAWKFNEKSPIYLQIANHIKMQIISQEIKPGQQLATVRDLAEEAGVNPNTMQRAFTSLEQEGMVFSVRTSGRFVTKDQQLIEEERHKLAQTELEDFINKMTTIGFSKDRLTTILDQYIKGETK
Description: EMSA. The note with it: 50 mM Tris/HCl, 10 mM NaCl, 0.5 M Mg acetate (so in the source), 0.1 mM EDTA, 5% glycerol, 30 min, 10 uL; 4% native PAGE in 0.5x TBS; pH and binding temperature not …. For orientation: In EMSA bound probe runs differently from free probe, usually more slowly.

In data set [2] the target is T1, StsR (GntR family regulator) (Streptococcus mutans UA159). Description: DNase I footprinting. The note with it: 50 mM Tris/HCl, 10 mM NaCl, 0.5 M Mg acetate (so in the source), 0.1 mM EDTA, 5% glycerol, 30 min, 10 uL; 4% native PAGE in 0.5x TBS; pH and binding temperature not ….
The target of data set [3] is StsR (GntR family regulator) (Streptococcus mutans UA159, UniProt Q8DTX4 1-123). The experiment in a line: EMSA; 10-40 pmol StsR; 50 mM Tris/HCl, 10 mM NaCl, 0.5 M Mg acetate (so in the source), 0.1 mM EDTA, 5% glycerol, 30 min, 10 uL; 4% native PAGE in 0.5x TBS; pH and binding temperature not stated (DNase I digestion at 28 C). The note with it: protein: recombinant; tags: His6 (pET28a); chain copies: 2; label: FITC; annealed with reverse complement.

In the case of “CTTATAAAGTAATTTAATATCTTGATGAAATTTTAAAAAAACTTGACATTTTTCGCAAACGATTGCATAATATTATTGTAACAAAAATTACAAAGAAATTTCAGGAGGAAATCGCT (double strand) [maltose ABC transporter promoter]”, the binding entry in data set [1] is reported as “binds”. Same read-out and setting: under “CTTCTGTCTCCTTAAGATCTACTTACTTTTATTATACTACAAATCCTTAAAATCCTCTTACTCTTTCATTTAATTCTACTAAATCTCATCAGTCTAAATTTACCACTTGACAATATTTTACTATAATTGTATTATATATATAACACAATTATACACTGCACTTTAGAAAGGAGAAAAAATGGCT (double strand) [stsR p2]” stands “binds”.

As to “CTTCTGTCTCCTTAAGATCTACTTACTTTTATTATACTACAAATCCTTAAAATCCTCTTACTCTTTCATTTAATTCTACTAAATCTCATCAGTCTAAATTTACCACTTGACAATATTTTACTATAATTGTATTATATATATAACACAATTATACACTGCACTTTAGAAAGGAGAAAAAATGGCT (double strand) [stsR p2 FITC]”, the binding result in data set [2] was “binds”. Regarding “CAAATTTTGGCAAAACTTTTGTGCCAAAATTTGAGTTTTATTAGAAAATGAAAAATGTTACAGTAGTTTTAGAATAAAAAGGAGGGGATTTCTGATGGAACGAAAATCTTCATTGAAGGTTCGGGTACA (double strand) [mannitol-specific PTS promoter]”, the binding entry in data set [1] is recorded as “binds”.

On to “CAGGGATATGAAAATGACAAATGACACTGCAAAAGCGTTTTCAAAAAATGTAAAATAAAAATGAAATAAAAAAGAAAGTAGGGTGTATTC (double strand) [mannose-specific PTS promoter]”, for which, in data set [1], the binding entry was “binds”. As to “AAGTGTCTCCTTCTACTTTTTAATAAAATAGTATTGTTTACTCAAATAATCACCTTGCGGCATATCAATGGTCAATCCCGCATACATTAACTCCGCA (double strand) [multiple sugar-binding ABC transporter promoter]”, in data set [1], the binding result is recorded as “binds”.

B1: stsR p3mut (dsDNA)
DNA 1: CCACTTGACAATATTTTACTCCACCTGTCCTCCATATATAACAC
DNA 2: GTGTTATATATGGAGGACAGGTGGAGTAAAATATTGTCAAGTGG
With B1, the binding result in data set [3] is reported as “no binding”.

B2: stsR p3 (dsDNA)
DNA 1: CCACTTGACAATATTTTACTATAATTGTATTATATATATAACAC
DNA 2: GTGTTATATATATAATACAATTATAGTAAAATATTGTCAAGTGG
In the case of B2, in data set [3], the binding result was “binds”.
